Read-outs that look alike come from different tables or passages of the source.
What was measured:
HP1β (HP1) [1] = molecular target: HP1β (HP1) (UniProt P83916); experiment: eCFP-HP1 retention on immobilised nucleosome library; details: reference: H3K9me2 nucleosomes; sites S28
HP1β (HP1) [2] = molecular target: HP1β (HP1) (UniProt P83916); experiment: eCFP-HP1 retention on H2A + H3 nucleosome library; details: reference: H3K9me2 nucleosomes; sites S28
[3] = molecular target: H3K9me2 nucleosomes (individually reconstituted for quantitative measurements); experiment: MST
[4] = molecular target: H3K9me2S28ph nucleosomes (individually reconstituted for quantitative measurements); experiment: MST
[5] = molecular target: H3K9me2S28ph nucleosomes (individually reconstituted for quantitative measurements); experiment: MST; remark: listed apart in the source
[6] = molecular target: H3K9me2S28ph nucleosomes (individually reconstituted for quantitative measurements); experiment: MST; remark: listed apart in the source

other: fold enrichment over unmodified H3 nucleosomes (HP1β (HP1) [1]) | fold change (HP1β (HP1) [2]) [fold] | Kd [3] [nM] | Kd [4] [nM] | Kd [5] [nM] | fold stronger binding than the H3K9me2 nucleosome on 187 bp DNA [5] [fold] | Kd [6] [nM] | Substance
stronger; reference 4.8 | 2.3 | – | – | – | – | – | histone H3 H3K9me2S28ph nucleosomes
– | – | 2400 | 1800 | 600 | 2 | 1700 | HP1 without eCFP tag (human HP1β) (from UniProt P83916 1-185) (natural protein)

From article PMC8163371
